Where no end group is shown, it is not given here. The star is where a group is joined. Biotin = O=C1N[C@H]2[C@H](CS[C@H]2CCCCC(=O)*)N1; Ahx = NCCCCCC(=O)O
Biological target: T1, Glucose-regulated-protein 78 (GRP78), cell surface (UniProt P11021 19-654, limits assumed)
T1 construct: whole, on cells; The target was endogenous GRP78 on human tumour cell lines; No recombinant GRP78 was used; also called BiP; HSPA5
Experiment: flow cytometry on AML and solid tumor cell lines, Streptavidin PE detection
Description: Anti-KDEL antibody for detection of cell surface GRP78 (Abcam, Clone-10C3; Cat. No. ab115638) and Streptavidin PE (BioLegend, San Diego, CA. Cat. No 405204 were used for flow cytometric analysis. A GRP78-binding peptide ([…] (SEQ ID NO: 1)) with an N-terminal Biotin tag (Biotin-Ahx-[…] (SEQ ID NO: 71)) was obtained from Genscript). The following antibodies purchased from BD Biosciences were used for flow cytometry: CD4, CD8, CCR7 FITC, CD45RA APC, CD19 APC, CD19 PE, CD8 APC-H7, CD4-KrO, TIM3 PE-Cy7, LAG3 PE, and PD1 BV605. Recombinant Human ErbB2/Her2 Fc Chimera Protein (R&D Systems, Cat. No 1129-ER) was used to detect HER2 CAR. Half a million Transduced and Non-Transduced T Cells were washed with 1×PBS and the cells were incubated with 3 μL of antibody and Fixable Live Dead aqua stain (Thermo Fisher Scientific, L34965) on ice and protected from light for 30 mins. Cells were washed with 1×PBS+2% FBS. FACS was carried out using FACS Canto II or Lyric (BD Biosciences). The analysis was performed using FlowJo 10.5.3 software (BD Biosciences, San Jose, CA).

T1 sequence (P11021 19-654 limits assumed): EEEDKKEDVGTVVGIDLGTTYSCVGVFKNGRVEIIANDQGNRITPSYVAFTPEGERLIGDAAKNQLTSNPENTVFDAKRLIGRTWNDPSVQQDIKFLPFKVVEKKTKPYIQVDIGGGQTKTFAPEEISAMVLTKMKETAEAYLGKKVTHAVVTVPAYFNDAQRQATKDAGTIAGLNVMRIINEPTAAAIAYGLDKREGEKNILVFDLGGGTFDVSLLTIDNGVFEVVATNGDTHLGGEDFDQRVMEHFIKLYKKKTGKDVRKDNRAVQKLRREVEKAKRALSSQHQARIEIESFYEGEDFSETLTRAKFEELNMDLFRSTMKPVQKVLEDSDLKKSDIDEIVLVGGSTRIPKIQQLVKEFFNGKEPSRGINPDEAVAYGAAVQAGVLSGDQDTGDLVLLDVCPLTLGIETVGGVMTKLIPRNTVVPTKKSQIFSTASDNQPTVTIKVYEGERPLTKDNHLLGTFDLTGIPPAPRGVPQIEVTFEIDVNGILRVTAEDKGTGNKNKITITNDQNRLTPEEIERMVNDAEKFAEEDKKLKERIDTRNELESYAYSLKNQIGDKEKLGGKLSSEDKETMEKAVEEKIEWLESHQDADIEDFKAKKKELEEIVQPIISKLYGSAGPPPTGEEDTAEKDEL

binding result: binds
B1: biotin-conjugated GRP78-binding peptide (Biotin-Ahx-CTVALPGGYVRVC) (peptide)
peptide: {Biotin-Ahx}-CTVALPGGYVRVC
modifications: cysteine pairing not given here
notes: Synthetic 13-mer from Genscript, detected with Streptavidin PE in flow cytometry; also called biotin-conjugated peptide
